# B1: NoV P^- (387)-NoV P^- (207) fusion protein (other)
# chain: SRTKPFTVPILTVEEMSNSRFPIPLEKLYTGPSSAFVVQPQNGRCTTDGVLLGTTQLSAVNICTFRGDVTHIAGSHDYIMNLASQNWNNYDPTEEIPAPLGTPDFVGKIQGMLTQTTREDGSTRAHKATVSTGSVHFTPKLGSVQYTTDTNNDLQTGQNTKFTPVGVIQDGNNHQNEPQQWVLPNYSGRTGHNVHLAPAVAPTFPGEQLLFFRSTMPGCSGYPNMNLDCLLPQEWVQHFYQEAAPAQSDVALLRFVNPDTGRVLFECKLHKSGYVTVAHTGPHDLVIPPNGYFRFDSWVNQFYTLAPMGNGAGRGGGGGGGGGGGGSKTKAFTIPVLKISEMTNSRFPVPVDQMYTSRSEGIVVQPQNGRATIDGELLGTTLVSPVSVCNFKGNLQAEVPGQHQLYQLQLTNLDGSPIDPTDDTPGPLGCPDFTGLLYGVASQRGPGDATRAHEARIDTGSDTFAPKIGQVRFYSTSSDFETNQPTHFTPIGIYIEGNSSDFNQWQLPRYGGHLANNNHLAPAVSPLFPGEQILFFRSFIPGASGHTNGEMDCLLPQEFVQHFYQEAATARSEVALLRFVNPDTGRALFESKLHKQGFMTIASSGDHPIIMPTNGYFRFEAWVNQFYSLAPVGTGSGR
# notes: also called NoV P^-(GII.4)-NoV P^-(GII.9)
# B2: HEV P domain (protruding domain of hepatitis E virus) (other)
# chain: TPSPAPSRPFSVLRANDVLWLSLTAAEYDQTTYGSSTNPMYVSDTVTFVNVATGAQAVARSLDWSKVTLDGRPLTTIQQYSKTFYVLPLRGKLSFWEASTTKAGYPYNYNTTASDQILIENAAGHRVAISTYTTSLGAGPTSISAVGVLAPHSALAALEDTVDYPCDCRGDCFC
# notes: released from GST-HEV P by thrombin; ~19 kDa monomer, ~38 kDa dimer
# B3: NoV P^- (387)-NoV P^- (115) fusion protein (other)
# chain: SRTKPFTVPILTVEEMSNSRFPIPLEKLYTGPSSAFVVQPQNGRCTTDGVLLGTTQLSAVNICTFRGDVTHIAGSHDYIMNLASQNWNNYDPTEEIPAPLGTPDFVGKIQGMLTQTTREDGSTRAHKATVSTGSVHFTPKLGSVQYTTDTNNDLQTGQNTKFTPVGVIQDGNNHQNEPQQWVLPNYSGRTGHNVHLAPAVAPTFPGEQLLFFRSTMPGCSGYPNMNLDCLLPQEWVQHFYQEAAPAQSDVALLRFVNPDTGRVLFECKLHKSGYVTVAHTGPHDLVIPPNGYFRFDSWVNQFYTLAPMGNGAGRGGGGGGGGGGGGQKTKPFSVPNLPLNTLSNSRVPSLIRSMMVSRDHGQMVQFQNGRVTLDGQLQGTTPTSASQLCKIRGSVFHANGGNGYTLTELDGSPYHAFESPAPIGFPDLGECDWHMEASPTTQFDTGDVIKQINVKQEAAFAPHLGTIQADGLSDVSVNTNMIAKLGWVSPASDGHRGNVDPWVIPRYGSTLTEAAQLAPPIYPPGFGEAIVFFMSDFPIAHGANGLSVPCTIPQEFVTHFVNEQAPTRGEAALLHYLDPDTHRNLGEFKLYPEGFMTCVPNSSGTGPQTLPINGVFVFVSWVSRFYQLKPVGTAGPARSLGI
# B4: NoV P^--VP8* (C-end) protein (other)
# chain: SRTKPFTVPILTVEEMSNSRFPIPLEKLYTGPSSAFVVQPQNGRCTTDGVLLGTTQLSAVNICTFRGDVTHIAGSHDYIMNLASQNWNNYDPTEEIPAPLGTPDFVGKIQGMLTQTTREDGSTRAHKATVSTGSVHFTPKLGSVQYTTDTNNDLQTGQNTKFTPVGVIQDGNNHQNEPQQWVLPNYSGRTGHNVHLAPAVAPTFPGEQLLFFRSTMPGCSGYPNMNLDCLLPQEWVQHFYQEAAPAQSDVALLRFVNPDTGRVLFECKLHKSGYVTVAHTGPHDLVIPPNGYFRFDSWVNQFYTLAPMGNGAGRGGGGGGGGGGGGLDGPYQPTTFTPPTDYWILINSNTNGVVYESTNNSDFWTAVIAVEPHVNPVDRQYNVFGENKQFNVRNDSDKWKFLEMFRGSSQNDFYNRRTLTSDTRLVGILKYGGRIWTFHGETPRATTDSSNTANLNGISITIHSEFYIIPRSQESKCNEYINNGL
# notes: Thrombin-cleaved product; ~52 kDa monomer, ~100 kDa dimer; also called free NoV P^--VP8* dimer
# B5: NoV P polypeptide (NoV P^-) of Norovirus VA387 (GII.4) (other)
# chain: SRTKPFTVPILTVEEMSNSRFPIPLEKLYTGPSSAFVVQPQNGRCTTDGVLLGTTQLSAVNICTFRGDVTHIAGSHDYIMNLASQNWNNYDPTEEIPAPLGTPDFVGKIQGMLTQTTREDGSTRAHKATVSTGSVHFTPKLGSVQYTTDTNNDLQTGQNTKFTPVGVIQDGNNHQNEPQQWVLPNYSGRTGHNVHLAPAVAPTFPGEQLLFFRSTMPGCSGYPNMNLDCLLPQEWVQHFYQEAAPAQSDVALLRFVNPDTGRVLFECKLHKSGYVTVAHTGPHDLVIPPNGYFRFDSWVNQFYTLAPMGNGAGR
# notes: ~34.5 kDa monomer, ~69 kDa dimer; also called free NoV P^- dimer
# B6: NoV P domain-RGDCFC (NoV P^+) of Norovirus VA387 (GII.4) (other)
# chain: SRTKPFTVPILTVEEMSNSRFPIPLEKLYTGPSSAFVVQPQNGRCTTDGVLLGTTQLSAVNICTFRGDVTHIAGSHDYIMNLASQNWNNYDPTEEIPAPLGTPDFVGKIQGMLTQTTREDGSTRAHKATVSTGSVHFTPKLGSVQYTTDTNNDLQTGQNTKFTPVGVIQDGNNHQNEPQQWVLPNYSGRTGHNVHLAPAVAPTFPGEQLLFFRSTMPGCSGYPNMNLDCLLPQEWVQHFYQEAAPAQSDVALLRFVNPDTGRVLFECKLHKSGYVTVAHTGPHDLVIPPNGYFRFDSWVNQFYTLAPMGNGAGRRRALCDCRGDCFC
# notes: Mainly the 24mer P particle (~830 kDa), with a low portion (~5%) of P dimer; also called P-RGDCFC
# B7: Rotavirus VP8* (other)
# chain: LDGPYQPTTFTPPTDYWILINSNTNGVVYESTNNSDFWTAVIAVEPHVNPVDRQYNVFGENKQFNVRNDSDKWKFLEMFRGSSQNDFYNRRTLTSDTRLVGILKYGGRIWTFHGETPRATTDSSNTANLNGISITIHSEFYIIPRSQESKCNEYINNGL
# notes: ~18 kDa monomer; also called free VP8* monomer
# Assays:
# [1] = biological target: the molecule itself; assay: gel filtration and EM; self-association
# [2] = biological target: the molecule itself; assay: gel filtration; self-association
# [3] = biological target: the molecule itself; assay: form of the immunogen as described; self-association
# [4] = biological target: the molecule itself; assay: gel filtration; self-association; remark: listed apart in the source
# [5] = biological target: the molecule itself; assay: gel filtration chromatography (self-association)
protein,measurement,setting,value
B1,binding result,[1],binds
B2,binding result,[2],binds
B3,binding result,[3],binds
B4,binding result,[4],binds
B5,binding result,[2],binds
B6,binding result,[1],binds
B7,binding result,[5],no binding

# Reference: patent US20140017269A1 (CHILDREN S HOSPITAL MEDICAL CENTER, published 2014)
